According to the DeepSol protein solubility set:

Assay: soluble on expression in E. coli; label from the status in PepcDB or PDB records

| Sequence | soluble on expression in E. coli |
| --- | --- |
| NLKDVEHVVILMQENRSFDHYFGTLKGVRGFGDRMAIPLPDGQRVWHQKGSKGEILPYHFDTSTTSAQRVDGTPHTWPDAQQAWNEGRMDKWLPAKTERSLGYYKEQDIAFQFAMANAFTICDAYHCSFQGGTNPNRLFLWTGTNDPLGQHGGPVTTNDHDSNGPVEQGYTWTTYPERLQAAGITWRVYQDMADNFSDNPLIGFRQYRAAAPDSPLIVNGLSTWKLDALKRDVLANSLPQVSWIVAPAKYSEHPGPSSPIWGAEYTSWVLDALTANPEVWSKTALLVMFDENDGFFDHVAPPAAPSLNKDGTLRGKTTADATLEWHTKGDIRYRNQPYGLGPRVPMYVISPWSKGGWVNSQVFDHTSVIRFLEQRFGVMEPNISPWRRAVCGDLTSAFNFANPNNEPFPELPDTSQADAIVASQIKLPKPKPPAVAAMPKQEMGIRPARALPYELGVHARYRSGGDALSLTFANTGKAGAVFQVFDLLDSENPPKRYTVGARKRLHDSFQGDASGDYHLEVHGPNGFLRVFRGNLRRDLAERKAPLPEVRIDYEPLFGNLRVQLINRGRHPVKLTVKDNVYRQGERRTVNVPPGQRREVRYSLRSSGNWYDFSVSAQGADSFLRRFSGRMEDGRSGFSDPGMGLGTLTF | not soluble |
| NLNSIQNFGAIDILCTDKTGTLTQDKVVLEYHLNVNGEDDTRVLRHAYLNSYFQTGYKNLMDLAIIHKTEEEEAADSRLIDLSENYVKVDEIPFDFTRRRLTTVVQDNKGKTQMVTKGAVEEMLSICAFAECNGGVQPLTDDVRYRILETVDNLNDKGFRVLAIAQKSNPSPIGAFGVKDECDMVLIGYLAFLDP | not soluble |
| NLRSIIESPSFKNAESKLTVAMGYRINNEPLLMDIAKTPHALIAGATGSGKSVCINSILMSLLYKNHPEELRLLLIDPKMVELAPYNGLPHLVAPVITDVKAATQSLKWAVEEMERRYKLFAHYHVRNITAFNKKAPYDERMPKIVIVIDELADLMMMAPQEVEQSIARIAQKARACGIHMLVATQRPSV | not soluble |
| NLSSEYVKDIYAYLRQLEAAQAVRPKYLLGREVTGNMRAILIDWLVQVQMKFRLLQETMYMTVSIIDRFMQNNSVPKKMLQLVGVTAMFIASKYEEMYPPEIGDFAFVTDNTYTKHQIRQMEMKILRALNFGLGRPLPLHFLRRASKIGEVDVEQHTLAKYLMELTMLDYDMVHFPPSQIAAGAFSLALKILDNGEWTPTLQHYLSYTEESLLPVMQHLAKNVVMVNQGLTKHMTVKNKYATSKHAKISTLPQLNSALVQDLAKAVAKV | soluble |
| NNMFSRQAPHFAVTDYDGTLQLLEDGLVLQHDGNHPLALYDYLNDKELRTNLIKTQAARADSMTCRIEAVIQSFNHRMNTNRLVADK | not soluble |
| NQHLTILRNVSDRKRMEKELRESELKFRKVFNGSMDGNVLFDNQYRIIDANPLASHILGLSHEEIKQHSLLDIISAYEIENLASPARQINFDEMDNEIPFLLSSGDNRKLEFSFKRNIIQ | not soluble |
| NRNFSIQMKGTFTYAHNEVLKYDEAAGLRPALSQVGKSLNSIWGYVADGLYIDEADIANNPQSTIGNIAIAPGDVKYVDQPDASGNYDGKITSDDRVVLGYPTIPEIIYGFGPSITWKNWDFSFFFQGQARVSFMMSGFEPFGTQSKNNVLKWISDDHWSKDNQNPNARYPRLTQYNNNNNTASSSYWLRNASFLKLRNAEIGYRFKWARIYVNGSNLLTFSPFKLWDPEMGGGAGMKYPTQRTYNVGIQLTFK | not soluble |
| NVKHAFVDVQLAALPKMAYAAVDFVDYRFDNKHWKSLNEICPEVGLKPYADFAVLEVPLYLNNKLDYQVWENFIKPAIATYKALGDSTNLFASTSSSDLQNDTYFALGYPLLESNIDAIHFNQTGATLTSVPVKDRIKVKNQSFWTLN | not soluble |
| NVLLLDVTPLTLGIETFGGAFSPLIPRNTTVPVKKTEIFSTGVDGQAGVDIKVFQGERGLVRNNKLIGDLKLTGITPLPKGIPQIYVTFDIDADGIINVSAAEKSSGKQQSITVIPNSGLSEEEIAKLIEEANANRAQDNLIRQRLELISKADIMISDTENLFKRYEKLISSEKEYSNIVEDIKALRQAIKNFKANENDMSIDVNGIKKATDALQGRALKLFQSATKNQQNQGK | soluble |
| NVLYENQKQIANQFNKAISQIQESLTTTSTALGKLQDVVNQNAQALNTLVKQLSSNFGAISSVLNDILSRLDKVEAE | soluble |
| NVQEEVTCPICLELLTEPLSLDCGHSLCRACITVSNKEAVTSMGGKSSCPVCGISYSFEHLQANQHLANIVE | soluble |
| NYASHTERQILEVSPVVADEALAQALECKPGTTWLRVRMLRVEKDAAHTPLCWNDAYMLPDVGQRIVGKIPNGSGLLCRIIENEAGIAVADIKQSIGATAIEGEMASRLGVAPGTPGLEITRLYVDRANTPFLITVNTYSAHKFR | not soluble |
| NYDPFVRHSVTVKADRKTAFKTFLEGFPEWWPNNFRTTKVGAPLGVDKKGGRWYEIDEQGEEHTFGLIRKVDEPDTLVIGWRLNGFGRIDPDNSSEFTVTFVADGQKKTRVDVEHTHFDRMGTKHAKRVRNGMDKGWPTILQSFQDKIDEEGAKK | soluble |
| NYNHPFTQLGNQVFPTTPIVSGVRGRVVEVPVQANQPLKTGDILFKIDPVPFEAEVARLEAKVKEASQGALGLESDLREAEAAVLKAQADRDKAQREFSRYQRGFDRGAFTEQDLDTRRQAYKAAEAMLDVAILQQEQAQIALDSEIGGENTQVAQLLAELRKAEFNLEQTIVRAPTDGYVTQLALR | soluble |
| PAVKPVIGEVTPNSIVAEAGIESGMELKAVSGIKTPDWESVNMGLISHIGDDAMTLTLTSDSEVGAEVTKTLDLRDWKFDPETESAMHSLGFAPYTPEIYRVIKQVSEDGAAAKAGVLPEDEIIAIGGEPINDWKQVVDAVRSNPNTPIELTVLRRGIEQSLTLTPDSRELANKQVVGFAGIAPEVAEWPESYRFELQFGVFESIGKAVDKTGQVIGLTVSMLKKLIVGDVGLNNLSGPISIAKGAGATADYGL | not soluble |
| PDQCKPPQVTCRSATCAQVNWEVPLSNGTDVTEYRLEWGGVEGSMQICYCGPGLSYEIKGLSPATTYYCRVQALSVVGAGPFSEVVACVTPPS | soluble |

| Sequence | soluble on expression in E. coli |
| --- | --- |
| PHIDIKCFPRELDEQQKAALAADITDVIIRHLNSKDSSISIALQQIQPESWQAIWDAEIAPQMEALIKKPGYSMNA | soluble |
| PIAQIHILEGRSDEQKETLIREVSEAISRSLDAPLTSVRVIITEMAKGHFGIGGELASKVRR | soluble |
| PIELLPETPSQTAGPYVHIGLALEAAGNPTRDQEIWNRLAKPDAPGEHILLLGQVYDGNGHLVRDSFLEVWQADANGEYQDAYNLENAFNSFGRTATTFDAGEWTLHTVKPGVVNNAAGVPMAPHINISLFARGINIHLHTRLYFDDEAQANAKCPVLNLIEQPQRRETLIAKRCEVDGKTAYRFDIRIQGEGETVFFDF | soluble |
| PKNKAKKNPVRFYKNNFFMLKDKVNNIYVYVYEHKKNDNYNDLYLPRDNVFPYLGRVYINNDNGFIINDVYFSSERIGVKNYYDKDNPILINKHSSEGNRSYGYEPETFAEIKFKTKLDNISKSQIEYIIEFKPYDSIVDYVGDNIKKTLREPVKIEGTFEIIKEDEAEIIRLHNADIFGLYNVESILFSSERIFSGNVFNFDYLFINGKEKINSSINGVKEFSDEFLKDKINENKNIVESYVKESKQRHWKSLMDESILNYIDNYADYYNELKEFKSFNILYYDDKTISLYKRVSKLEDLKLAEIDNMFMTFELESQKLISPYIKDFVNDSEALLKKYNAPSDFYSNIDSLIFGITDSFIIIMNEKGCGKIFIDYKNIKEYINKDHYLAYLFN | not soluble |
| PKYTKSVLKKGDKTNFPKKGDVVHCWYTGTLQDGTVFDTNIQTSAKKKKNAKPLSFKVGVGKVIRGWDEALLTMSKGEKARLEIEPEWAYGKKGQPDAKIPPNAKLTFEVELVDID | soluble |
| PLEKTVRLHSSSGTTGNPTVILHTQKDLDEWANAVARCLYMVGLRPGDIFQNSSGYGMFTGGLGFQYGAERLGMLTVPAAAGNTKRQLKFISDFGTTALHAIPSYAARMYEIMQEMGIDPRRDTKLRTLIIGAEPHSEEQRRRIEDMLGVKAYNSFGMSEMCGPGVAFECQEQNGLHIW | not soluble |
| PNIADKGSVFYHFSATSFDSVDGTRHYRVWTAVPNTTAPASGYPILYMLDGNAVMDRLDDELLKQLSEKTPPVIVAVGYQTNLPFDLNSRAYDYTPAAESRKTDLHSGRFSRKSGGSNNFRQLLETRIAPKVEQGLNIDRQRRGLWGHSYGGLFVLDSWLSSSYFRSYYSASPSLGRGYDALLSRVTAVEPLQFCTKHLAIMEGSATQGDNRETHAVGVLSKIHTTLTILKDKGVNAVFWDFPNLGHGPMFNASFRQALLDISGENANYTAGCHELSH | soluble |
| PPLVANQVVTCPDKKSTAAVILTPTENHFTLKCPKTALTEPPTLAYSPNRQICPAGTTSSCTSKAVTLSSLIPEAEDSWWTGDSASLDTAGIKLTVPIEKFPVTTQTFVVGCIKGDDAQSCMVTVTVQARASSVVNNVARCSYGADSTLGPVKLSAEGPTTMTLVCGKDGVKVPQDNNQYCSGTTLTGCNEKSFKDILPKLTENPWQGNASSDKGATLTIKKEAFPAESKSVIIGCTGGSPEKHHCTVKLEFAG | soluble |
| PQQSTWQMATNTPLECRLVHPIPNYGDAEFSSRAGKKINLDFELKMRRPMGDTRNVSLVSMPPVWRPGEGADRITNLQFFKQFDGYIGGQTAWSLLSELEKGRYPTFSYQDWQSRDQRIEVALSSVLFQQPYNEFSDCISKLLPYS | not soluble |
| PQYIGGISNTFKYKNWEFSCFVTMQAGNKIRMNPSFDPAFADLNVFSKEYYNRWLNPGDERKTNIPVIPSQDLIRNIGKENIEKAYNTYNYSQNRVADGSFVRMKNISLGYRLPQRFLSHLKIKQMNVKVNVTNPFLIYSDRKLNGQDPEFYRSGGVSLPTPKQYTMTLNVEF | not soluble |
| PRERVSRVHASSGTTGKPTVVGYTARDLDNWANLVARSIRAAGGKPGDIVHVSYGYGLFTGGLGAHYGAERLGCTVVPMSGGQTEKQVQLINDFRPDIIMVTPSYYCNILEEQRRQGMDPRQSSLRIGIFGAEPWTGQMRADIEAEGGIDAVDIYGLSEVMGPGVASECVETKDGPVV | not soluble |
| PRVSLFFFSADTDDHAWDKHALVLECAELADSLGLDAIWVPERHFDPFGAPYPSPGLLLAAIAARTSRIALRSGSVVLPLRDPLLVAEEWGVLDSLSRGRMGISLASGWHADDFVLNPEGYERRKDVLEERLADLHTLWNGASITRKGPGGRPVEVRTYPRPERTPEVWLTSSRNPDTWRTAGRLNLHVLTALLEQTIDEITERVGLYHQALTEAGHPTDGRQVTCMLHTHLASDPASVEQRVRGPLIRYLSAHMDLFSKYAAGGGAGIDPDEVTEADRQALLEHGLRRYMGTSGLFGSAESCLPKVERLGAAGITELGCLVDFGLPREQVLESVEELGRLRVALRETAGAPK | soluble |
| PSLALYVDASGKIKYINEYFLEICRFKSADEATGRSPSELLDTSSRRTLAEKVMETGEGIYNVEKSIKFKALDKPLFTVLSAVPVKDETGTIAGSLMVITDMT | not soluble |
| PSPREQLMESIRKGKELKQSRPPLKKASDRQLGPPRMCEPSPREQLMESIRKGKELKQSRPPLKKASDRQLGPPRMCEPSPREQLMESIRKGKELKQA | soluble |
| PSPSTEQSAKKVRKKAENAHNTPLLVLYGSNMGTAEGTARDLADIAMSKGFAPQVATLDSHAGNLPREGAVLIVTASYNGHPPDNAKQFVDWLDQASADEVKGVRYSVFGCGDKNWATTYQKVPAFIDETLAAKGAENIADRGEADASDDFEGTYEEWREHMWSDVAAYFNLDIENSEDNKSTLSLQFVDS | soluble |
